The data set deals with ATP. Put plainly: switch fluorescence ratio, 500 uM ATP over buffer (Cy3 cluster intensity, sum of 5 cycles each) (fold (ratio)); higher = stronger signal-on switching upon ATP binding; sequences stand for … in TCGTCGGCAGCGTCAGATGTGTATAAGAGACAGTTTTTTTTTTTTTTTTTTTTTTTTT…TC. The settings on record: aptamer strand: ATP DNA aptamer (quencher-CACCTGGGGGAGTATTGCGGAGGAAGG + anchor), 100 nM annealed; ATP concentration: 500 uM. Summed up: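 Per cluster, summed Cy3 intensity from the target cycles was divided by that from the buffer cycles to give the fluorescence ratio, then averaged per switch-domain sequence. Clusters outside 100-1000 RFU were excluded. The Cy3-labelled switching-strand clusters, on a modified Illumina MiSeq flow-cell, were annealed to 100 nM quencher-labelled ATP aptamer and imaged in selection buffer, then after 15 min with 500 uM ATP at 22 °C, for five cycles with NaOH stripping and re-annealing between them.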

We go through ten sequences from the supplement of paper PMC10126150.

± gives the standard deviation of the averaged measurements.
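Also: ATP exposure 15 min at 22 °C before imaging.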

In the case of TTTTTTGTGG, the switch fluorescence ratio came to 0.978 ± 0.031.

For TTTTTTTAAC, the switch fluorescence ratio came to 0.999 ± 0.032.

TTTTTTTACC: the switch fluorescence ratio amounted to 1.01 ± 0.021.

As to TTTTTTTACT, the switch fluorescence ratio stood at 1.02 ± 0.029.

In the case of TTTTTTTAGA, the switch fluorescence ratio is 0.995 ± 0.022.

Turning to TTTTTTTAT, the switch fluorescence ratio was found to be 1.014 ± 0.01.

Regarding TTTTTTTCTC, the switch fluorescence ratio is 0.992 ± 0.056.

As for TTTTTTTTAT, the switch fluorescence ratio was 1 ± 0.024.

For the sequence TTTTTTTTC, the switch fluorescence ratio stood at 1.045 ± 0.0071.

Regarding TTTTTTTTCA, the switch fluorescence ratio was 1.01 ± 0.053.
